The record followed here is PMC6138665.

In test [1] the target is LC3B (UniProt Q9GZQ8). In words: co-immunoprecipitation of Myc-AMBRA1, LC3 blot. Conditions: reference: Myc-AMBRA1 wild type; sites S1014.
For a further test, the target named is GABARAP-L2 (UniProt P60520). In words: ITC, peptide titrated into GABARAP-L2. Conditions: reference: unphosphorylated peptide P0; sites S1014. (ITC needs no label: the signal is the heat of the interaction.)
Another test addresses LC3A (UniProt Q9H492). Description: ITC, peptide titrated into LC3A. Conditions: reference: unphosphorylated peptide P0; sites S1014.
For test [2], the target named is LC3B (UniProt Q9GZQ8). In words: NMR HSQC titration of 15N-LC3B. Conditions: reference: unphosphorylated peptide P0; sites S1014.
Another test addresses LC3C (UniProt Q9BXW4). In words: ITC, peptide titrated into LC3C. Conditions: reference: unphosphorylated peptide P0; sites S1014.
In a further test the target is GABARAP-L1 (UniProt Q9H0R8). In words: ITC, peptide titrated into GABARAP-L1. Conditions: reference: unphosphorylated peptide P0; sites S1014.
GABARAP-L1, sequence (Q9H0R8 whole entry, looked up): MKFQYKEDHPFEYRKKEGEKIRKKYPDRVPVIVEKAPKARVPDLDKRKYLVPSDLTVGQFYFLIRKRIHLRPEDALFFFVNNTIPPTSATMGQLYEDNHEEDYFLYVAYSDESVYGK

GABARAP-L2, sequence (P60520 whole entry, looked up): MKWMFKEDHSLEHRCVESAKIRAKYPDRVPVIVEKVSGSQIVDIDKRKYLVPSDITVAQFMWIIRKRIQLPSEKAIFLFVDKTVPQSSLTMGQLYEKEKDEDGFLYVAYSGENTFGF
LC3C, sequence (Q9BXW4 whole entry, looked up): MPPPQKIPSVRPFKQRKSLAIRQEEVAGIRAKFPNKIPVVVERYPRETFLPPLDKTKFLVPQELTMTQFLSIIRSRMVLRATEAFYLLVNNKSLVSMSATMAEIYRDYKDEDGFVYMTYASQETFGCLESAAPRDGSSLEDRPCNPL

As to AMBRA1 (from UniProt Q9C0C7-3) S1014A, the “binding against the reference” value with LC3B [1] is reported as “weaker”.
Turning to “AMBRA1 AMBRA1-LIR (from UniProt Q9C0C7-3) pS1014 peptide P1”, the “binding against the reference” value with GABARAP-L2, with LC3A, in the test with LC3B [2], with LC3C and with GABARAP-L1 was “stronger” each time.
